{"source": "patent US20250249113", "key": {"[1]": {"system": "Compound 11: DM1-Mcc-Phe-Cit-Lys(PEG5-Ma-Cys-Ac)-Tyr-OH"}, "[2]": {"system": "Compound 12: DM1-Mcc-Cit-Lys(PEG5-Ma-Cys-Ac)-Tyr-OH"}, "[3]": {"system": "Compound 1: AF-Arg-Lys(PEG4-Mal-Cys-Ac)-Phe-OH"}, "[4]": {"system": "Compound 3: AF-Arg-Phe-Lys(PEG4-Mal-Cys-Ac)-OH"}, "[5]": {"system": "Compound 5: DM1-Mal-Phe-Lys-Lys(PEG4-Mal-Cys-Ac)-Phe-OH"}, "[6]": {"system": "Compound 6: DM1-Mal-Phe-Cit-Lys(PEG4-Mal-Cys-Ac)-Phe-OH"}, "[7]": {"system": "Compound 7: DM1-Mal-Phe-Cit-Phe-Lys(PEG4-Mal-Cys-Ac)-OH"}, "[8]": {"system": "Compound 8: AF-Cit-Lys(PEG4-Mal-Cys-Ac)-Phe-OH"}}, "data": [{"substance": "recombinant human Cathepsin B", "values": [{"measurement": "Ratio (T1/2 Compound/T1/2 Reference), Cat B-induced cleavage", "setting": "[1]", "value": 0.005}, {"measurement": "T1/2 Compound (min), Cat B-induced cleavage", "setting": "[1]", "value": 0.06, "unit": "min"}, {"measurement": "T1/2 of cleavage by exo-Cat B", "setting": "[1]", "value": "compounds 11 and 12 are spontaneously cleaved by exo-Cat B (T1/2≤1 min)"}, {"measurement": "Ratio (T1/2 Compound/T1/2 Reference), Cat B-induced cleavage", "setting": "[2]", "value": "4e-05"}, {"measurement": "T1/2 Compound (min), Cat B-induced cleavage", "setting": "[2]", "value": 0.0004, "unit": "min"}, {"measurement": "T1/2 of cleavage by exo-Cat B", "setting": "[2]", "value": "compounds 11 and 12 are spontaneously cleaved by exo-Cat B (T1/2≤1 min)"}, {"measurement": "Ratio (T1/2 Compound/T1/2 Reference), Cat B-induced cleavage", "setting": "[3]", "value": 0.12}, {"measurement": "T1/2 Compound (min), Cat B-induced cleavage", "setting": "[3]", "value": 1.5, "unit": "min"}, {"measurement": "Ratio (T1/2 Compound/T1/2 Reference), Cat B-induced cleavage", "setting": "[4]", "value": 0.11}, {"measurement": "T1/2 Compound (min), Cat B-induced cleavage", "setting": "[4]", "value": 1.4, "unit": "min"}, {"measurement": "Ratio (T1/2 Compound/T1/2 Reference), Cat B-induced cleavage", "setting": "[5]", "value": 0.05}, {"measurement": "T1/2 Compound (min), Cat B-induced cleavage", "setting": "[5]", "value": 0.6, "unit": "min"}, {"measurement": "Ratio (T1/2 Compound/T1/2 Reference), Cat B-induced cleavage", "setting": "[6]", "value": 0.02}, {"measurement": "T1/2 Compound (min), Cat B-induced cleavage", "setting": "[6]", "value": 0.3, "unit": "min"}, {"measurement": "Ratio (T1/2 Compound/T1/2 Reference), Cat B-induced cleavage", "setting": "[7]", "value": 0.09}, {"measurement": "T1/2 Compound (min), Cat B-induced cleavage", "setting": "[7]", "value": 1.2, "unit": "min"}, {"measurement": "Ratio (T1/2 Compound/T1/2 Reference), Cat B-induced cleavage", "setting": "[8]", "value": 0.09}, {"measurement": "T1/2 Compound (min), Cat B-induced cleavage", "setting": "[8]", "value": 1.1, "unit": "min"}]}]}
